Reference: the supplement of paper PMC10598134
± gives the standard deviation.

Assay: collision cross section of unmodified peptide (TIMS, N2, iRT-aligned); higher = larger / more extended gas-phase ion
How it was run: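 On a timsTOF Pro/HT (dda-PASEF, nitrogen, ~2.4 mbar), synthetic peptide pools were analysed after a 120-min nanoflow C18 separation at 60 °C and identified in MaxQuant. Three reference ions served for 1/K0 calibration, with run-wise alignment to the median iRT peptide deviation. Collision cross section comes from the Mason-Schamp equation, using the most abundant feature per charge state averaged over 1–3 technical replicates.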

Substance	collision cross section (charge state: 2)	collision cross section (charge state: 3)
IEDEQALGSQLQK	401.79 ± 0.14 Å²	493.77 ± 0.29 Å²
IFDSEEILAGYK	391.02 ± 0.47 Å²	–
IGAEVYHHLK	371.39 ± 0.54 Å²	435.97 ± 1.1 Å²
IGNSYFKEEK	377.24 ± 0.91 Å²	453.77 ± 3.2 Å²
IGSLDNITHVPGGGNK	–	470.46 ± 1.9 Å²
IHNAENIQPGEQKYEYK	475.76 ± 2.4 Å²	534.89 ± 9.6 Å²
IHPEGPPLK	335.79 ± 0.58 Å²	438.33 ± 2 Å²
IHVQSSSDSSDEPAEKR	455.51 ± 2.8 Å²	536.3 ± 1.4 Å²
IINEPTAAAIAYGLDKK	487.73 ± 3.8 Å²	556.28 ± 2.3 Å²
IISSIEQKEENK	409.72 ± 2.2 Å²	479.1 ± 6.7 Å²
ILDLKTGTVK	361.56 ± 1.2 Å²	442.8 ± 7.1 Å²
INNFSADIKDSK	403.18 ± 2.5 Å²	450.51 ± 4 Å²
IPAASAAAMNLASAR	397.84 ± 0.66 Å²	496.43 ± 0.86 Å²
IPPTYQIR	332.62 ± 0.59 Å²	–
IPQEKCILQTDVK	428.77 ± 2.5 Å²	470.55 ± 3.7 Å²
IQNGAQGIRFIYTR	–	511.04 ± 0.58 Å²
IQQELQTAKK	374.48 ± 0.53 Å²	429.26 ± 3.7 Å²
IQTKAGEATVK	361.35 ± 0.94 Å²	457.37 ± 4.1 Å²
IQTVPASHLQQGTASGSSK	–	490.25 ± 12 Å²
ISALQGKLSK	353.47 ± 1.4 Å²	435.93 ± 5.2 Å²
ISEILLDHGAPIQAK	447.46 ± 0.13 Å²	537.87 ± 1.7 Å²
ISPVEESEDVSNK	399.42 ± 0.14 Å²	–
ISSNFSSIIAEKLR	430.92 ± 3.1 Å²	511.25 ± 4.9 Å²
ITASLCDLKSR	397.44 ± 4.9 Å²	460.65 ± 3.9 Å²
ITESVAETAQTIK	394.65 ± 0.14 Å²	–
ITESVAETAQTIKK	434.75 ± 1.5 Å²	508.11 ± 2.5 Å²

Substance	collision cross section (charge state: 2)	collision cross section (charge state: 3)
ITGKNQVTATK	365.6 ± 0.91 Å²	448.51 ± 5 Å²
ITLSKHQNVQLPR	434.86 ± 3.1 Å²	515.94 ± 19 Å²
IVEKYGYTHLSAGELLR	489.48 ± 3 Å²	538.24 ± 2.8 Å²
IVFSGNLFQHQEDSKK	493.09 ± 3.3 Å²	531.43 ± 2 Å²
IVNVSLADLR	359.17 ± 0.57 Å²	–
IVSGKDYNVTANSK	405.96 ± 2.6 Å²	485.92 ± 5.8 Å²
IYELAAGGTAVGTGLNTR	443.72 ± 1 Å²	–
IYHPNVDK	337.77 ± 0.73 Å²	425.77 ± 2 Å²
KDYQPGITFIVVQK	–	508.05 ± 1.2 Å²
KFGVLSDNFK	368.49 ± 1.5 Å²	446.92 ± 3.4 Å²
KITESVAETAQTIK	420.69 ± 0.66 Å²	480.58 ± 0.22 Å²
KSQAGASELGPFSDPR	–	497 ± 1.7 Å²
KVQFAPEK	329.36 ± 0.58 Å²	–
KVTLSVLSR	348.44 ± 0.58 Å²	443.31 ± 0.22 Å²
KYEEIDNAPEER	401.01 ± 1.2 Å²	466.95 ± 4.5 Å²
LAEEENKAK	348.48 ± 1.2 Å²	421.19 ± 4.7 Å²
LAEQEAHYAVR	394.57 ± 1.1 Å²	471.99 ± 1.1 Å²
LAPEYEAAATR	358.54 ± 0.15 Å²	432.76 ± 0.89 Å²
LDEKENLSAK	363.87 ± 1.4 Å²	445.27 ± 6.6 Å²
LDHLAEKFR	365.36 ± 1.5 Å²	453.05 ± 4 Å²
LDINTNTYTSQDLK	418.99 ± 0.69 Å²	–
LDLSSLAYSGK	363.06 ± 1.2 Å²	–
LDYSDFQIVK	368.99 ± 0.6 Å²	–
LEENHYNTYISK	419.55 ± 1 Å²	465.19 ± 1.2 Å²
LEEVTGKLQVAR	400.35 ± 5.3 Å²	475.59 ± 4.3 Å²
LEKDYQPGITFIVVQK	447.32 ± 0.59 Å²	488.88 ± 0.86 Å²

Substance	collision cross section (charge state: 2)	collision cross section (charge state: 3)
LEKTIDDLEEK	403.94 ± 1.9 Å²	470.73 ± 4.5 Å²
LELAQYR	324.63 ± 0.15 Å²	–
LEQVEKELLR	383.51 ± 1.5 Å²	455.22 ± 4.1 Å²
LFVGGIKEDTEEHHLR	486.85 ± 3.6 Å²	544.82 ± 2.6 Å²
LGDVYVNDAFGTAHR	434.69 ± 0.66 Å²	501.14 ± 0.88 Å²
LGGDLGTYVINK	369.28 ± 0.16 Å²	–
LGHYATQLQK	363.47 ± 0.14 Å²	429.28 ± 0.3 Å²
LGILPVGRGK	351.11 ± 0.11 Å²	438.91 ± 4.7 Å²
LGNDFHTNKR	369.4 ± 1.5 Å²	431.93 ± 3.7 Å²
LGNTISSLFGGGTTPDAK	447.17 ± 0.13 Å²	–
LGPNDQYK	325.88 ± 0.73 Å²	–
LGPPGNPGPSGSPGPK	383.56 ± 0.58 Å²	453.1 ± 18 Å²
LGPPGNPGPSGSPGPKGQK	422.18 ± 1.4 Å²	483.14 ± 1.2 Å²
LGSASSSHGSIQESHK	–	509.47 ± 1.3 Å²
LGSPSGKTGTCR	383.86 ± 1.2 Å²	458.08 ± 4.7 Å²
LGTTPSVYGGAGGRGIR	444.42 ± 1.7 Å²	523.45 ± 1.1 Å²
LGVATVAKGVCGACK	433.92 ± 2.8 Å²	487.58 ± 4.2 Å²
LGVPGLPGYPGR	354.06 ± 0.41 Å²	–
LGVPGLPGYPGRQGPK	416.71 ± 0.59 Å²	493.33 ± 24 Å²
LLALSGPGGGRGR	381.45 ± 1.3 Å²	451.48 ± 1.9 Å²
LLEEEDSKLK	382.28 ± 0.34 Å²	444.51 ± 4.2 Å²
LLEQKTQESQK	394.71 ± 1.6 Å²	453.32 ± 3.2 Å²
LLFSNTAAQKLR	416.62 ± 2.1 Å²	485.85 ± 3.4 Å²
LLIVSTTPYSEKDTK	459.72 ± 2.9 Å²	510.79 ± 5.4 Å²
